Laboratory results taken from patent US20180118786A1 (published 2018).
Starred links: 1 amine or outer side, 2 acyl side, 3 side chain; linkers in the order of their positions; H or OH if unused. Positions of bridges follow the written chain, without caps; N, C: chain ends. Non-standard residues stand in square brackets, D forms with d. No end group written: not given here. TATA = O=C(CC[*:1])N1CN(C(=O)CC[*:2])CN(C(=O)CC[*:3])C1; βAla = NCCC(=O)O

T1: human β-FXIIa (HFXIIAB; Molecular Innovations) (human, UniProt P00748 354-362; P00748 373-615)
T1 chain 1: NGPLSCGQR
T1 chain 2: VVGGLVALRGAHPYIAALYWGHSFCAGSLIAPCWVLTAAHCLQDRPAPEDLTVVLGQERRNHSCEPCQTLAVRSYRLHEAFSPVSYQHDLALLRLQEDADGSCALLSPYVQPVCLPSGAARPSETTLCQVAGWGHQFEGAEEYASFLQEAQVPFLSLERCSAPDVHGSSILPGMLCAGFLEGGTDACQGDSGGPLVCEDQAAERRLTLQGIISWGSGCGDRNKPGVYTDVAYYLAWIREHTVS

B1: peptide 18 (peptide 2, Pro6 to leucine) (peptide)
peptide: RCFRLLCRQLRCRW-NH2
modifications: linker 2-7-12 via TATA; N-terminus assumed
SMILES: CC(C)C[C@@H]1NC(=O)[C@H](CCC(N)=O)NC(=O)[C@H](CCCNC(=N)N)NC(=O)[C@@H]2CSCCC(=O)N3CN(CN(C3)C(=O)CCSC[C@H](NC(=O)[C@@H](N)CCCNC(=N)N)C(=O)N[C@@H](Cc3ccccc3)C(=O)N[C@@H](CCCNC(=N)N)C(=O)N[C@@H](CC(C)C)C(=O)N[C@@H](CC(C)C)C(=O)N2)C(=O)CCSC[C@@H](C(=O)N[C@@H](CCCNC(=N)N)C(=O)N[C@@H](Cc2c[nH]c3ccccc23)C(N)=O)NC(=O)[C@H](CCCNC(=N)N)NC1=O
B2: FXII618 variant with P in position six replaced by S (peptide)
peptide: RCFRLSCRQLRCRW-NH2
modifications: linker 2-7-12 via TATA; N-terminus assumed
SMILES: CC(C)C[C@@H]1NC(=O)[C@H](CCC(N)=O)NC(=O)[C@H](CCCNC(=N)N)NC(=O)[C@@H]2CSCCC(=O)N3CN(CN(C3)C(=O)CCSC[C@H](NC(=O)[C@@H](N)CCCNC(=N)N)C(=O)N[C@@H](Cc3ccccc3)C(=O)N[C@@H](CCCNC(=N)N)C(=O)N[C@@H](CC(C)C)C(=O)N[C@@H](CO)C(=O)N2)C(=O)CCSC[C@@H](C(=O)N[C@@H](CCCNC(=N)N)C(=O)N[C@@H](Cc2c[nH]c3ccccc23)C(N)=O)NC(=O)[C@H](CCCNC(=N)N)NC1=O
B3: peptide 15 (peptide 2, Pro6 to alanine) (peptide)
peptide: RCFRLACRQLRCRW-NH2
modifications: linker 2-7-12 via TATA; N-terminus assumed
SMILES: CC(C)C[C@@H]1NC(=O)[C@H](CCCNC(=N)N)NC(=O)[C@H](Cc2ccccc2)NC(=O)[C@@H](NC(=O)[C@@H](N)CCCNC(=N)N)CSCCC(=O)N2CN3CN(C2)C(=O)CCSC[C@@H](C(=O)N[C@@H](CCCNC(=N)N)C(=O)N[C@@H](Cc2c[nH]c4ccccc24)C(N)=O)NC(=O)[C@H](CCCNC(=N)N)NC(=O)[C@H](CC(C)C)NC(=O)[C@H](CCC(N)=O)NC(=O)[C@H](CCCNC(=N)N)NC(=O)[C@H](CSCCC3=O)NC(=O)[C@H](C)NC1=O
B4: peptide 21 (peptide 2, Gln9 to aspartate) (peptide)
peptide: RCFRLPCRDLRCRW-NH2
modifications: linker 2-7-12 via TATA; N-terminus assumed
SMILES: CC(C)C[C@@H]1NC(=O)[C@H](CC(=O)O)NC(=O)[C@H](CCCNC(=N)N)NC(=O)[C@@H]2CSCCC(=O)N3CN(CN(C3)C(=O)CCSC[C@H](NC(=O)[C@@H](N)CCCNC(=N)N)C(=O)N[C@@H](Cc3ccccc3)C(=O)N[C@@H](CCCNC(=N)N)C(=O)N[C@@H](CC(C)C)C(=O)N3CCC[C@H]3C(=O)N2)C(=O)CCSC[C@@H](C(=O)N[C@@H](CCCNC(=N)N)C(=O)N[C@@H](Cc2c[nH]c3ccccc23)C(N)=O)NC(=O)[C@H](CCCNC(=N)N)NC1=O
B5: peptide 83 (FXII618, Arg8 to glycine) (peptide)
peptide: RCFRLPCGQLRCR-NH2
modifications: linker 2-7-12 via TATA; N-terminus assumed
SMILES: CC(C)C[C@@H]1NC(=O)[C@H](CCC(N)=O)NC(=O)CNC(=O)[C@@H]2CSCCC(=O)N3CN(CN(C3)C(=O)CCSC[C@H](NC(=O)[C@@H](N)CCCNC(=N)N)C(=O)N[C@@H](Cc3ccccc3)C(=O)N[C@@H](CCCNC(=N)N)C(=O)N[C@@H](CC(C)C)C(=O)N3CCC[C@H]3C(=O)N2)C(=O)CCSC[C@@H](C(=O)N[C@@H](CCCNC(=N)N)C(N)=O)NC(=O)[C@H](CCCNC(=N)N)NC1=O

Biological target: T1, human β-FXIIa (HFXIIAB; Molecular …)
Assay: enzyme inhibition

First: RCFRLPCWQLSCE [FXII615]
Second: RCFRLPCRQLSCE [FXII614]
The Ki of the first is 6.3-fold higher: 246 nM for the first, 39 nM for the second. The second binds more tightly here.

Compared with RCFRLPCAQLRCR [FXII617], RCFRLPCSQLSCE [FXII613] is 2.5-fold higher in Ki: 25 nM for the first, 62 nM for the second.

RCFRLPCEQLSCE [FXII612] and RCFRLPCAQLRCE [FXII608] are within 1.5-fold of each other in Ki: 63 nM for the first, 44 nM for the second.

Going from RCPRLPCAQLSCE [FXII607] to RCPRLPCAQLRCE [FXII609], the Ki falls from 985 nM to 123 nM (8-fold).

Compared with RCFRLPCRQLRCA [FXII616], ACFRLPCAQLSCE [FXII610] is 7.5-fold higher in Ki: 31 nM for the first, 231 nM for the second.

Biological target: T1, human β-FXIIa (HFXIIAB; Molecular …)
Assay: enzyme inhibition
Remark: another data set of the same source

Compared with B1, RCFRLNCRQLRCR [Pro6 Asparagine (19)] is 13-fold higher in Ki: 20 nM for the first, 264 nM for the second.

First: RCFRLDCRQLRCR [Pro6 Aspartic acid (20)]
Second: B2
The Ki of the first is 4.1-fold higher: 307 nM for the first, 75 nM for the second. The second binds more tightly here.

Compared with RCFRLVCRQLRCR [Pro6 Valine (17)], B3 is 2.4-fold lower in Ki: 119 nM for the first, 50 nM for the second.

Biological target: T1, human β-FXIIa (HFXIIAB; Molecular …)
Assay: enzyme inhibition
Remark: another data set of the same source

First: B4
Second: B5
The Ki of the first is 27-fold higher: 1400 nM for the first, 52 nM for the second.

First: RCFRLPC[βAla]QLRCR-NH2 (linker 2-7-12 via TATA; not fully specified) [peptide 82 (FXII618, Arg8 to β-alanine)]
Second: RCFRLPCRHLRCR [Gln9 Histidine (24)]
The Ki of the first is lower: 755 nM for the first, over 10000 nM for the second. The first binds more tightly here.

Compared with RCFRLPCRNLRCR [Gln9 Asparagine (22)], RCFRLPCRELRCR [Gln9 Glutamic acid (23)] is higher in Ki: 2550 nM for the first, over 10000 nM for the second.

Biological target: T1, human β-FXIIa (HFXIIAB; Molecular …)
Assay: enzyme inhibition; TATA-cyclized

Going from ACWGAALSCNPQGSRCG [FXII527] to VCWGACLNVCP [FXII504], the Ki falls from 8500 nM to 1900 nM (4.5-fold). The second binds more tightly here.

Going from GCCYLRYLCS [FXII513] to ACWGAAQRCKVMQGECG [FXII528], the Ki rises from 350 nM to 3700 nM (11-fold). The first binds more tightly here.

Compared with LCPRLSCHQLGCS [FXII515], LCSRLPCEQLPCN [FXII514] is 4.1-fold higher in Ki: 2500 nM for the first, 10200 nM for the second. The first binds more tightly here.

Going from ACWGAASACQQGGAKCG [FXII534] to ACWGACQNVCR [FXII506], the Ki rises from 2400 nM to 6300 nM (2.6-fold).

RCWYGCVPQCY [FXII509] and RCWGACLNVCS [FXII502] are within 1.5-fold of each other in Ki: 1000 nM for the first, 1200 nM for the second.
